Biological target: T1, FXIS557A catalytic domain (catalytically inactive catalytic domain of human FXI, Ile370 to Ala606 of SEQ ID … (human))
T1 construct: The range 20-264 is worked out from 19 signal residues + 237 domain residues + 8 His; also called FXIS557A catalytic domain decoy; decoy
Test: SPR (Biacore T200), biotinylated FXIS557A catalytic domain captured on CAP chip, DEF Fab injected, 37 C, 1:1 Langmuir fit
Experimental: Binding affinity was measured using a Biacore T200 Instrument (GE Healthcare). Recombinant FXIS557A catalytic domain was biotin labeled via primary amines and captured on a Biacore CAP chip (GE Healthcare). Experiments were performed at 37° C. using a 30 μ/min flow rate in 10 mM HEPES (pH 7.4), 150 mM NaCI and 0.005% v/v Surfactant P20 (HBSp) buffer (GE Healthcare). After each DEF Fab injection, the chip surface was regenerated with a solution of 6 M guanidine-HCl and 0.25 M NaOH, coated with the CAP reagent and new FXIS557A was captured. All data was analyzed using the Biacore T200 Evaluation software and background and buffer subtracted data fit to a 1:1 Langmuir binding model. Results were reported as the mean of two experiments.

B1: DEF Fab (Fab, V domains shown)
VH: EVQLVQSGAEVKKPGASVKVSCKASGYTFTGYYMHWVRQAPGQGLEWMGWIDPDEGDTNYAQKFQGRVTMTRDTSISTAYMELSRLRSDDTAVYYCARLASGFRDYWGQGTLVTVSS
VL: DIVMTKSPSSLSASVGDRVTITCRASQGIRNDLGWYQQKPGKAPKRLIYAASSLQSGVPSRFSGSGSGTEFTLTISSLQPEDFATYYCLQHDIYASTFGPGTKVDIKR
notes: Fab form of antibody DEF
Q: What does the source list for B1?
A: koff: 0.000445 s⁻¹; kon: 2.95e+06 M⁻¹ s⁻¹

— US20180216094A1 (University of California, published 2018)
